Laboratory results published in paper PMC9760430, “A stapled chromogranin A-derived peptide homes in on tumors that express αvβ6 or αvβ8 integrins” (International Journal of Biological Sciences, 2023).
Ends that are not written are not given here.

Tests used:
[1] = target: recombinant human αvβ6 integrin (human) (UniProt P06756); assay: ELISA; competitive integrin binding assay: αvβ6-coated plates, isoDGR peptide labeled with peroxidase as probe for the integrin-binding site; Ki
[2] = target: recombinant murine αvβ8 integrin (murine) (UniProt P43406); assay: direct integrin binding assay (near-infrared fluorescence scan of plates); microtiter plates coated with αvβ6 or αvβ8; peptide-IRDye conjugates incubated 1 h, washed, bound fluorescence read with Odyssey CLx; EC50
Chain of recombinant murine αvβ8 integrin (murine) (P43406 whole entry, chain 1 of 2): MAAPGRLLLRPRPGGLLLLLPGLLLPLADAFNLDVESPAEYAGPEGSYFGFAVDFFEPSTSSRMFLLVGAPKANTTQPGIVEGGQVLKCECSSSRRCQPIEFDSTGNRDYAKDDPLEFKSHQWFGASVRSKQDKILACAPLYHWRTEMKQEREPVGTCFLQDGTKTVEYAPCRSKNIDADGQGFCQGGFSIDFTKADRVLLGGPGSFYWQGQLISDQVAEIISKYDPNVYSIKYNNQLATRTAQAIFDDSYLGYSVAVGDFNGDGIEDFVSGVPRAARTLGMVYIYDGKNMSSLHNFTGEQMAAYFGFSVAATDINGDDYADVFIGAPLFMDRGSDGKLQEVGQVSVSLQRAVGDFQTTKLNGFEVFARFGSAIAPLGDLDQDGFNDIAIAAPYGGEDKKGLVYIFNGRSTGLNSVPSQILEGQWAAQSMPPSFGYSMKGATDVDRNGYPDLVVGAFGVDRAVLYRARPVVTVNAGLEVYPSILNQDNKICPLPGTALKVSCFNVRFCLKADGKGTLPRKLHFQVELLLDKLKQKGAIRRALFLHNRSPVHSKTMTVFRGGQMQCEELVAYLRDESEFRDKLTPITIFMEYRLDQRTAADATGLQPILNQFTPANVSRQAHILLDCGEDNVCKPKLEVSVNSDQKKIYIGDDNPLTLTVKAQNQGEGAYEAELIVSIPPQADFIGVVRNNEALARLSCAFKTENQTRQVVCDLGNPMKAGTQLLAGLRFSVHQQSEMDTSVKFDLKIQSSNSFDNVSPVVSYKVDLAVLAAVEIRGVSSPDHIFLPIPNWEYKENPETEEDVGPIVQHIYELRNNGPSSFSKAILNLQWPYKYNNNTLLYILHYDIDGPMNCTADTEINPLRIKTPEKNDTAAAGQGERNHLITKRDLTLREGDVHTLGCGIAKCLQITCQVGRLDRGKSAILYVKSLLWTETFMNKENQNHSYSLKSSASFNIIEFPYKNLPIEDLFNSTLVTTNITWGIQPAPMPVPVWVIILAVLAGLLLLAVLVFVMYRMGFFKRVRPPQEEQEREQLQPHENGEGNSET
Chain of recombinant murine αvβ8 integrin (murine) (Q0VBD0 whole entry, chain 2 of 2, further chain): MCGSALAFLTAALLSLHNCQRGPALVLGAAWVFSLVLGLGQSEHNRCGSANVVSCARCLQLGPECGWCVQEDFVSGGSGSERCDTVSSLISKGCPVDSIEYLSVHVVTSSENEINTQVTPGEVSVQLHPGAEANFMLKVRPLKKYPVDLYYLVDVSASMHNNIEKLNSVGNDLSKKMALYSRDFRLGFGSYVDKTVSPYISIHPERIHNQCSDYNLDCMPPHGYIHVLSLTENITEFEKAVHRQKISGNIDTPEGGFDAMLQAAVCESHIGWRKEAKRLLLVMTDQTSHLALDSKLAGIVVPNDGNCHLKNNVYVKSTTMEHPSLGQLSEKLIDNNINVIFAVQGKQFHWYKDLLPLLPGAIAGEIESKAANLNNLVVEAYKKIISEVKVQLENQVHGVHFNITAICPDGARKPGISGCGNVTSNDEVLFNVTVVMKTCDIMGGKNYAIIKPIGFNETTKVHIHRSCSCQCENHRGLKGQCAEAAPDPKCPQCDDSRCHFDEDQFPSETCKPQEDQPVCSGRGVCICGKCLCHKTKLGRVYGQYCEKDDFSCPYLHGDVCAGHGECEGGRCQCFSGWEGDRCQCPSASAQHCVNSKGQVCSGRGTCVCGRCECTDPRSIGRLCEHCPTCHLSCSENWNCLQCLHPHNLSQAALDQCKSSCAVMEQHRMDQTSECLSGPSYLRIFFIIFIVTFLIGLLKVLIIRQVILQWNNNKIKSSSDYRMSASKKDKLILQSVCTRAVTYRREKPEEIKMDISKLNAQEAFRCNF

[3] = target: recombinant human αvβ6 integrin (human) (UniProt P06756); assay: as above
[4] = target: recombinant murine αvβ6 integrin (murine) (UniProt P43406); assay: as above
Chain of recombinant murine αvβ6 integrin (murine) (P43406 whole entry, chain 1 of 2): as the sequence (P43406 whole entry, chain 1 of 2) above
Chain of recombinant murine αvβ6 integrin (murine) (Q9Z0T9 whole entry, chain 2 of 2, further chain): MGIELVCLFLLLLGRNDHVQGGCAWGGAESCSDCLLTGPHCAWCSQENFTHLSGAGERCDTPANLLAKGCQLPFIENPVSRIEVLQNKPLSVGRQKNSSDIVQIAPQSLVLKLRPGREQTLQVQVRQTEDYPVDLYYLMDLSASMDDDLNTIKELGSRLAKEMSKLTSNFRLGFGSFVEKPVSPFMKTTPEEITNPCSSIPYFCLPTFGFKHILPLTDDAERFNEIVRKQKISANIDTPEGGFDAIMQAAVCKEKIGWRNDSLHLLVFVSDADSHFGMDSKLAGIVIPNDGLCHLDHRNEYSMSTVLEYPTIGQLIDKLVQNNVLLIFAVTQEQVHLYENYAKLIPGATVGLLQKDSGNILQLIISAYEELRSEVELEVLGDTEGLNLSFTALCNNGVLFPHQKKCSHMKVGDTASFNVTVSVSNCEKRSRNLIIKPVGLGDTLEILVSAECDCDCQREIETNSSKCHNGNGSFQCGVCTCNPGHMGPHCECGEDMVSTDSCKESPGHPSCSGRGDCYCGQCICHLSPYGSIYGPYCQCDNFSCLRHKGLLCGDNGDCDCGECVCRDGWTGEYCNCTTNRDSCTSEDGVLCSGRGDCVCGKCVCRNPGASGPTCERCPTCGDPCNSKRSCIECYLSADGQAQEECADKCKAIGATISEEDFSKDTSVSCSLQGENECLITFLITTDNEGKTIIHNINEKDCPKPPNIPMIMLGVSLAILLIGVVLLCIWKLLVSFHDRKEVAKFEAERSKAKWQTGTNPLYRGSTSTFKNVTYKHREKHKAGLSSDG

[5] = target: recombinant human αvβ8 integrin (human) (UniProt P06756); assay: as above

Ki [1] | EC50 [2] | EC50 [3] | EC50 [4] | EC50 [5] | Binder
> 1000 nM |  |  |  |  | C(maleimide‑NOTA)FETLRGEERILSILRHQNLLKELQD-NH2 [2a-NOTA conjugate]
 | > 100 nM | > 100 nM | > 100 nM | > 100 nM | C(maleimide‑IRDye 800CW)FETLRGEERILSILRHQNLLKELQD-NH2 [2a-IRDye conjugate]
